Assay results from doi:10.1101/2025.10.22.683608.

T1: ADAR1-Zα (UniProt P55265 134-198)
T1 sequence: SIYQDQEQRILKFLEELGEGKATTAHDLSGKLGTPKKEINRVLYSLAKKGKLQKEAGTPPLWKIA

T2: ZBP1-Zα (UniProt Q9H171 8-70)
T2 sequence: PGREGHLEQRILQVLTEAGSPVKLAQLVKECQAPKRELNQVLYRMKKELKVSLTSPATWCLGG

B1: A6 (ssDNA)
DNA: TTCAGCACTCCACGCATAGCCCGCACCCAGCCGCGACTGCCCCCTGGTTCGGCCCGCCTATGCGTGCTACCGTGAA
B2: A10 (ssDNA)
DNA: TTCAGCACTCCACGCATAGCACACGACCGAACTCGCCAACCCTGTCGTCCCGCCCGCCTATGCGTGCTACCGTGAA
B3: A16 (ssDNA)
DNA: TTCAGCACTCCACGCATAGCACACCGCCCCCCTCTACTCGGCACACTCGCCCGCCCCTATGCGTGCTACCGTGAA
B4: A9 (ssDNA)
DNA: TTCAGCACTCCACGCATAGCCGACCACCCCCCCGACCCGGTGTCACTCCCCGCGCCCCTATGCGTGCTACCGTGAA
B5: A11 (ssDNA)
DNA: TTCAGCACTCCACGCATAGCCCGGTGCCGACCGAACCACCGTTGCCCTCCGCATGCCCTATGCGTGCTACCGTGAA
B6: A13 (ssDNA)
DNA: TTCAGCACTCCACGCATAGCCCGGCCGACGGAACAATCCGTGTTCACTCGTCGCACCCTATGCGTGCTACCGTGAA
B7: A1 (ssDNA)
DNA: TTCAGCACTCCACGCATAGCCGGACGCGCCCCTCTTCCTTGTGTGCTCTCGCCCGCCCTATGCGTGCTACCGTGAA
B8: A3 (ssDNA)
DNA: TTCAGCACTCCACGCATAGCCGACCCGCGCCGCATTCACTGCCTACTGCCCGCCGCCCTATGCGTGCTACCGTGAA
B9: A7 (ssDNA)
DNA: TTCAGCACTCCACGCATAGCGACGGGCCAACACCCCAGGTTCGCGTCCCCGCCTGCCCTATGCGTGCTACCGTGAA
B10: A4 (ssDNA)
DNA: TTCAGCACTCCACGCATAGCACGCCCGCCACCCCCTCTCCTGGCCATCCGCGCACACCTATGCGTGCTACCGTGAA
B11: A2 (ssDNA)
DNA: TTCAGCACTCCACGCATAGCCGGCCAGCCAAGTCCCCGCTCCTCACGGCCCCCCGCCCTATGCGTGCTACCGTGAA
B12: A15 (ssDNA)
DNA: TTCAGCACTCCACGCATAGCCCGGCGTGAAGACCCGTGTGCTTTCAGGTCGCCCGCCCTATGCGTGCTACCGTGAA
B13: A8 (ssDNA)
DNA: TTCAGCACTCCACGCATAGCCCGCCACCACCAATCCTCACACTAGTCCGGCCCGGTCCTATGCGTGCTACCGTGAA
B14: A14 (ssDNA)
DNA: TTCAGCACTCCACGCATAGCACGCCGCCGAAGCAAACCCACGTCCTCGCCCACGGCCCTATGCGTGCTACCGTGAA
B15: A5 (ssDNA)
DNA: TTCAGCACTCCACGCATAGCCCGCCCCCCGCTACTCCCCTCCTGAGTTGCCGTCGCCCTATGCGTGCTACCGTGAA
B16: A12 (ssDNA)
DNA: TTCAGCACTCCACGCATAGCACACGCGCGAAGACCCCCACCGATCCGGCCGCTCGTCCTATGCGTGCTACCGTGAA

Target: T1, ADAR1-Zα
Assay: SPR

Point of comparison: B3, Kd 103 ± 11.9 nM. Against it:
- B1 — 5.1-fold lower, 20.2 ± 2.2 nM
- B2 — within error, 99.2 ± 25.3 nM
- B4 — 3.9-fold lower, 26.5 ± 5.5 nM
- B5 — within error, 104 ± 10 nM
- B6 — 3.5-fold lower, 29.5 ± 7.6 nM
- B7 — 3.2-fold lower, 31.7 ± 5 nM
- B8 — 6.4-fold lower, 16.1 ± 3.7 nM
- B9 — 3.7-fold lower, 27.7 ± 3.1 nM
- B10 — 49-fold lower, 2.1 ± 0.4 nM
- B11 — 4-fold lower, 25.7 ± 6.2 nM
- B12 — the same, 103 ± 17 nM
- B13 — within error, 99.8 ± 24.6 nM
- B14 — within error, 96.7 ± 11.4 nM
- B15 — 52-fold lower, 2 ± 0.3 nM
- B16 — within error, 104 ± 29.2 nM

Target: T1, ADAR1-Zα
Assay: SPR
Remark: another data set of the same source

For B10, the Kd was 1.8 nM.

Target: T2, ZBP1-Zα
Assay: SPR

B10 was tested, and the Kd was 255 nM.
